The results in this text go back to patent US20220411504A1 (Janssen / Centocor, published 2022).

Where two headings read alike, the source gives them in different places.

Assay [1] addresses T1, Human CD3 epsilon (CD3ε) of the T cell receptor complex on cells (human, UniProt P07766 23-207).
T1 construct: On Jurkat cells and primary human (pan) T cells; also called T-cell surface glycoprotein CD3 epsilon chain; T3E
As to the kind of experiment: T cell binding (method not described).

Assay [2] deals with T2, HLA-G on cells (K562-HLA-G and HLA-G expressing tumor cells) (human).
T2 construct: whole, on cells; also called HLA-G1
Put plainly: K562-HLA-G cell binding (method not described).

Assay [3] addresses T2, HLA-G on cells (K562-HLA-G and HLA-G …). Put plainly: cell-based or functional assay.
The target of assay [4] is T1, Human CD3 epsilon (CD3ε) of the T cell …. Put plainly: flow cytometry on human pan T cells. For orientation: Flow cytometry measures light scatter and fluorescence of single cells or particles in a stream.
For assay [5], the target named is T3, recombinant human DLL3 (human, UniProt Q9NYJ7 27-492).
T3 construct: also called DLL3 antigen; Delta-like protein 3
T3 sequence: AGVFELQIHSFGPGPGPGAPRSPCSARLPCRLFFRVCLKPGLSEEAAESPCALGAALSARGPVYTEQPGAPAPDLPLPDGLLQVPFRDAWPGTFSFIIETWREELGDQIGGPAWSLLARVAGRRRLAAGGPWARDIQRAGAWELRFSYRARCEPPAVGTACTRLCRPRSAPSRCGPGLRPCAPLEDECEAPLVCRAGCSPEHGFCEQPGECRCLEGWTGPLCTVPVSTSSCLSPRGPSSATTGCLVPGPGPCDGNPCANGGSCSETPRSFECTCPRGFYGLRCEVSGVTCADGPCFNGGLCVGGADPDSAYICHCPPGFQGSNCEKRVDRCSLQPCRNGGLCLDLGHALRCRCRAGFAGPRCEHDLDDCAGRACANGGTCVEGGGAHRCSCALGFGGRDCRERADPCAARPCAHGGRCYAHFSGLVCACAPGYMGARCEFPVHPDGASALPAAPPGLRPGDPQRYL
Put plainly: SPR (Biacore T200), antibody captured by goat anti-Fc, DLL3 titrated. (In general: SPR reads the build-up and loss of mass on a sensor chip optically.)

Assay [6] addresses T4, DLL3 on tumor cells (SHP-77, HCC1833, G361) (human, UniProt Q9NYJ7 27-618).
T4 sequence: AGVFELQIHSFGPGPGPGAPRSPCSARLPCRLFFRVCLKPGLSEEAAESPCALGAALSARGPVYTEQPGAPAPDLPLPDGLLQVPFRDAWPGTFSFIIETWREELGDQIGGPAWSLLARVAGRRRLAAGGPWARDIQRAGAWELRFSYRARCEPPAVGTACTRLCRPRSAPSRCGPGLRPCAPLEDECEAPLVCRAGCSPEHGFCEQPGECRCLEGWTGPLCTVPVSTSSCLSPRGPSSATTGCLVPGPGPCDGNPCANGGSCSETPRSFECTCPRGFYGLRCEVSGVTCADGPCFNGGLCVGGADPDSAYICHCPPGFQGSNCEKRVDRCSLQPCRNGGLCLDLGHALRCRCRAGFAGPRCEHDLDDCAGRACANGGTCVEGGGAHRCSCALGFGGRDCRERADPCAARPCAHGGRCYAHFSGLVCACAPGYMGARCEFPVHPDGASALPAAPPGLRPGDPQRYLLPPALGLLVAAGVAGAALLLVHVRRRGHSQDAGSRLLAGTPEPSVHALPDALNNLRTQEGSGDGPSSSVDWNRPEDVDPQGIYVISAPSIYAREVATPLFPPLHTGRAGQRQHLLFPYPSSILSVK
As to the kind of experiment: cell-based or functional assay.

Assay [7] deals with T3, recombinant human DLL3. Put plainly: SPR (Biacore T200), antibody captured by goat anti-Fc, DLL3 titrated. This is another data set of the same source.
Assay [8] concerns the target T5, human Kallikrein-2 6-His protein (soluble hK2) (human, UniProt P20151 18-261, limits assumed).
T5 construct: The assays say only 'soluble hK2' or 'human KLK2 antigen'; also called KLK2; kallikrein related peptidase 2
As to the kind of experiment: SPR, bispecific captured by anti-Fc, soluble hK2 injected.

T1 sequence (P07766 23-207 limits assumed, one chain of several): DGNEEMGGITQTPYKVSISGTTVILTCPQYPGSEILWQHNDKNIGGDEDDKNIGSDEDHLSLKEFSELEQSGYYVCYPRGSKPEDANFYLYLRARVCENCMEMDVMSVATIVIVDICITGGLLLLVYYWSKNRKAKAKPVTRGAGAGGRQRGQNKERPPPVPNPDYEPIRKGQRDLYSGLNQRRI
T5 sequence (P20151 other isoform, or with tags, fused parts or gaps limits assumed): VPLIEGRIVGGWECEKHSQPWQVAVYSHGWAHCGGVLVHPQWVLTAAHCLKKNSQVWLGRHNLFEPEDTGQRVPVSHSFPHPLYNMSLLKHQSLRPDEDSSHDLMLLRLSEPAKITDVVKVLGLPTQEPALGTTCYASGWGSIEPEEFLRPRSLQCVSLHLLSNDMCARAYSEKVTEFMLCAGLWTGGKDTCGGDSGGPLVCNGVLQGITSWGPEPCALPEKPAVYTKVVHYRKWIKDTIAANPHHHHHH

B1: HC3B125 (bispecific antibody, human IgG1, lambda, L234A L235A)
heavy: QVQLQQSGPRLVRPSQTLSLTCAISGDSVFNNNAAWSWIRQSPSRGLEWLGRTYYRSKWLYDYAVSVKSRITVNPDTSRNQFTLQLNSVTPEDTALYYCARGYSSSFDYWGQGTLVTVSSASTKGPSVFPLAPSSKSTSGGTAALGCLVKDYFPEPVTVSWNSGALTSGVHTFPAVLQSSGLYSLSSVVTVPSSSLGTQTYICNVNHKPSNTKVDKKVEPKSCDKTHTCPPCPAPEAAGGPSVFLFPPKPKDTLMISRTPEVTCVVVSVSHEDPEVKFNWYVDGVEVHNAKTKPREEQYNSTYRVVSVLTVLHQDWLNGKEYKCKVSNKALPAPIEKTISKAKGQPREPQVYVYPPSREEMTKNQVSLTCLVKGFYPSDIAVEWESNGQPENNYKTTPPVLDSDGSFALVSKLTVDKSRWQQGNVFSCSVMHEALHNHYTQKSLSLSPG
light: QSALTQPASVSGSPGQSITISCTGTSSNIGTYKFVSWYQQHPDKAPKVLLYEVSKRPSGVSSRFSGSKSGNTASLTISGLQAEDQADYHCVSYAGSGTLLFGGGTKLTVLGQPKAAPSVTLFPPSSEELQANKATLVCLISDFYPGAVTVAWKADSSPVKAGVETTTPSKQSNNKYAASSYLSLTPEQWKSHRSYSCQVTHEGSTVEKTVAPTECS
scFv: DIVMTQSPDSLAVSLGERATINCKSSQSVLHSSNNKNYLTWFQQKPGQPPKLLIYWASTRESGVPDRFSGSGSGTDFTLTISSLQAEDVAVYYCHQYYSTPPTFGQGTKVEIKGGSEGKSSGSGSESKSTGGSQVQLQQSGPGLVKPSQTLSLTCAISGDSVSSNSAAWNWIRQSPSRGLEWLGRTYYRSKWYNDYAVSVKSRITINPDTSKNQISLQLNSVTPEDTAVYYCAGDRRYGIVGLPFAYWGQGTLVTVSSEPKSSDKTHTCPPCPAPEAAGGPSVFLFPPKPKDTLMISRTPEVTCVVVSVSHEDPEVKFNWYVDGVEVHNAKTKPREEQYNSTYRVVSVLTVLHQDWLNGKEYKCKVSNKALPAPIEKTISKAKGQPREPQVYVLPPSREEMTKNQVSLLCLVKGFYPSDIAVEWESNGQPENNYLTWPPVLDSDGSFFLYSKLTVDKSRWQQGNVFSCSVMHEALHNHYTQKSLSLSPG
notes: No codon for C-terminal K447; also called CD3B376-Fab-Fc x MHGB732-LH-scFv-Fc; HCB125
As to B1, the EC50 – broadly, the concentration that produces a half-maximal response – in assay [1] stood at 60 nM; in assay [2], 12 nM. In addition, in assay [3], the “Cytotoxicity, EC50 (T cell-mediated, NCI-H2009-b2m target cells, 72 hr)” value was determined as 0.0565 nM.

B2: D3C3B80 (bispecific antibody, human IgG1, lambda, L234A L235A)
scFv: DIQMTQSPSSLSASVGDRVTITCRASQGISNYLAWFQQKPGKAPKSLIYAASSLQSGVPSKFSGSGSGTDFTLTISSLQPEDFATYYCQQYNSYPYTFGQGTKLEIKGGSEGKSSGSGSESKSTGGSQVQLVQSGAEVKKPGASVKVSCKASGQTFTNYYIHWVRQAPGQGLEWMGIINPSGGSTSYAQKLQGRMTMTRDTSTSTVYMELSSLRSEDTAVYFCARQGPFIGDAFDIWGQGTTVTVSSEPKSSDKTHTCPPCPAPEAAGGPSVFLFPPKPKDTLMISRTPEVTCVVVSVSHEDPEVKFNWYVDGVEVHNAKTKPREEQYNSTYRVVSVLTVLHQDWLNGKEYKCKVSNKALPAPIEKTISKAKGQPREPQVYVLPPSREEMTKNQVSLLCLVKGFYPSDIAVEWESNGQPENNYLTWPPVLDSDGSFFLYSKLTVDKSRWQQGNVFSCSVMHEALHNHYTQKSLSLSPGK
heavy: QVQLQQSGPRLVRPSQTLSLTCAISGDSVFNNNAAWSWIRQSPSRGLEWLGRTYYRSKWLYDYAVSVKSRITVNPDTSRNQFTLQLNSVTPEDTALYYCARGYSSSFDYWGQGTLVTVSSASTKGPSVFPLAPSSKSTSGGTAALGCLVKDYFPEPVTVSWNSGALTSGVHTFPAVLQSSGLYSLSSVVTVPSSSLGTQTYICNVNHKPSNTKVDKKVEPKSCDKTHTCPPCPAPEAAGGPSVFLFPPKPKDTLMISRTPEVTCVVVSVSHEDPEVKFNWYVDGVEVHNAKTKPREEQYNSTYRVVSVLTVLHQDWLNGKEYKCKVSNKALPAPIEKTISKAKGQPREPQVYVYPPSREEMTKNQVSLTCLVKGFYPSDIAVEWESNGQPENNYKTTPPVLDSDGSFALVSKLTVDKSRWQQGNVFSCSVMHEALHNHYTQKSLSLSPGK
light: B1 light
notes: also called C3C3B80
As to B2, the binding result in assay [4] is reported as “binds”. Also, the Kd (usually a measure of binding affinity in units of concentration) with recombinant human DLL3 [5] was determined as 0.033 nM.

B3: DL3B585 (bispecific antibody, human IgG1, lambda, L234A L235A)
scFv: DIQMTQSPSSLSASVGDRVTITCRASQGISNYLAWFQQKPGKAPKSLIYAASSLQSGVPSKFSGSGSGTDFTLTISSLQPEDFATYYCQQYNSYPYTFAQGTKLEIKGGSEGKSSGSGSESKSTGGSQVQLVQSGAEVKKPGASVKVSCKASGNTFTNYYIHWVRQAPGQGLEWMGIINPSGGSTSYAQKLQGRMTMTRDTSTSTVYMELSSLRSEDTAVYFCARQGPFIGDAFDIWGQGTMVTVSSEPKSSDKTHTCPPCPAPEAAGGPSVFLFPPKPKDTLMISRTPEVTCVVVSVSHEDPEVKFNWYVDGVEVHNAKTKPREEQYNSTYRVVSVLTVLHQDWLNGKEYKCKVSNKALPAPIEKTISKAKGQPREPQVYVLPPSREEMTKNQVSLLCLVKGFYPSDIAVEWESNGQPENNYLTWPPVLDSDGSFFLYSKLTVDKSRWQQGNVFSCSVMHEALHNHYTQKSLSLS
heavy: B1 heavy
light: B1 light
notes: also called CD3B376-Fab; DL3B279-LH-scFv
Regarding B3, in assay [6], the “Cytotoxicity, % lysis of SHP-77 cells (whole PBMCs, 1:1 ET, 30 nM)” value was 58.1%. Moreover, the binding result in assay [4] is “binds”. Besides, the Kd with recombinant human DLL3 [5] and in the assay with recombinant human DLL3 [7] was 0.024 nM in each case.

B4: HC3B258 (bispecific antibody, human IgG1, lambda, L234A L235A)
heavy: B1 heavy
light: B1 light
scFv: B1 scFv
notes: Differs from HC3B125 only by a codon for the C-terminal lysine K447, which is processed; also called CD3B376-Fab-Fc x MHGB732-LH-scFv-Fc (with K447 codon)
B4: the concentration for a half-maximal effect (EC50) in assay [1] is 60 nM; in assay [2], 11 nM.

B5: KL2B242 Fab (arm of a hK2/CD3 bispecific, Table 40) (bispecific antibody)
chain 1: QVQLQESGPGLVKPSETLSLTCTVSGGSISSYYWSWLRQPAGSGLEWIGRLYVSGFTNYNPSLKSRVTLSLDPSRNQLSLKLSSVTAADTAVYYCAGDSGNYWGWFDPWGQGTLVTVSSASTKGPSVFPLAPSSKSTSGGTAALGCLVKDYFPEPVTVSWNSGALTSGVHTFPAVLQSSGLYSLSSVVTVPSSSLGTQTYICNVNHKPSNTKVDKKVEPKSCDKTHTCPPCPAPEAAGGPSVFLFPPKPKDTLMISRTPEVTCVVVSVSHEDPEVKFNWYVDGVEVHNAKTKPREEQYNSTYRVVSVLTVLHQDWLNGKEYKCKVSNKALPAPIEKTISKAKGQPREPQVYVLPPSREEMTKNQVSLLCLVKGFYPSDIAVEWESNGQPENNYLTWPPVLDSDGSFFLYSKLTVDKSRWQQGNVFSCSVMHEALHNHYTQKSLSLSPG
chain 2: SYELTQPPSVSVSPGETASITCSGDQLGENYASWYQQKPGQSPVLVIYQDSKRPSGIPERFSGSNSGNTATLTISGTQALDEADYYCQAWDNSIVVFGGGTKLTVLGQPKAAPSVTLFPPSSEELQANKATLVCLISDFYPGAVTVAWKADSSPVKAGVETTTPSKQSNNKYAASSYLSLTPEQWKSHRSYSCQVTHEGSTVEKTVAPTECS
chain 3: DIQMTQSPSSLSASVGDRVTITCRARQSIGTAIHWYQQKPGKAPKLLIKYASESISGVPSRFSGSGSGTDFTLTISSLQPEDFATYYCQQSGSWPYTFGQGTKLEIKGGSEGKSSGSGSESKSTGGSEVQLVESGGGLVKPGGSLRLSCAASGFTFSRYNMNWVRQAPGKGLEWVSSISTSSNYIYYADSVKGRFTFSRDNAKNSLDLQMSGLRAEDTAIYYCTRGWGPFDYWGQGTLVTVSSEPKSSDKTHTCPPCPAPEAAGGPSVFLFPPKPKDTLMISRTPEVTCVVVSVSHEDPEVKFNWYVDGVEVHNAKTKPREEQYNSTYRVVSVLTVLHQDWLNGKEYKCKVSNKALPAPIEKTISKAKGQPREPQVYVYPPSREEMTKNQVSLTCLVKGFYPSDIAVEWESNGQPENNYKTTPPVLDSDGSFALVSKLTVDKSRWQQGNVFSCSVMHEALHNHYTQKSLSLSPG
For the molecule B5, in assay [8], the dissociation constant Kd turned out to be 0.14 nM.
